# Measured values reported in the supplement of paper PMC9170038.
# System: MS2 coat protein
# Experiment: apparent KD of MS2 coat protein; designed switch direction (-1 OFF switch, 1 ON switch): -1; higher = weaker reporter binding
# Procedure, shortened: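 An oligonucleotide input, 200 uM small-molecule ligand, or no input was present during titration of SNAP-549-labelled MS2 coat protein, which was doubled from 0.7 or 1.5 nM to 3 µM. Designed RNA switches had been transcribed on Illumina chips by stalled E. coli RNA polymerase. Apparent KD per design is the median over clusters of curves fitted to normalised cluster fluorescence.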
# [1] = Eterna round: R95, input ligand: microRNA oligo, concentration not stated
# [2] = input ligand: microRNA oligo, concentration not stated
Sequence,apparent KD of MS2 coat protein [1] [nM],apparent KD of MS2 coat protein (input ligand: FMN 200 uM) [nM],apparent KD of MS2 coat protein (input ligand: none) [nM],apparent KD of MS2 coat protein [2] [nM]
UCGGCGCGAGGAUAUGCGGUUGCUUGGUAGGGUCGGAGCGUACAUGAGGAUCACCCAUGUAGAAGGCGCGCCGC [Apr-15 SS2-33] (puzzle: Exclusion 2),15.5,–,–,–
"UCGGCGCUAGGAUAUGCGUCGAAAGACAUGAGGAUCACCCAUGUGGUGCUCCUUAUUAAAGCAGAAGGAGCCCGUA [EX5 A.17] (Eterna round: R97, puzzle: Exclusion 5)",–,300,152,–
"UCGUUCCGUGUAGGAUAUUGGCCUCCCUUGGGCCGAGAAGGACAUGAGGAUCACCCAUGUAUGUUAUUAUCGCGCGUGGCGCAU [Design 88] (Eterna round: R96, puzzle: Exclusion NG 1)",–,126,18.4,13.8
"UCGUUUCGUGUAGGAUAUUGGCCUUCUCUGGGUCGAGAAGGACAUGAGGAUCACCCAUGUAUGUUAUUAUCACGCGUGGCGCAU [Design 83] (Eterna round: R96, puzzle: Exclusion NG 1)",–,35.3,28.2,15.8
UCUCAACAUGAGGAUCACCCAUGUGAGGAUAUGAUGCAGCAGUGGUCUACGCUGUGCAUCAGAAGGCACAUGUG (puzzle: Exclusion 1),119,–,–,–
"UCUCAGAUAGGAUAUACGUUGGCGGUAGAUCGGGUUUAAAUACAUGAGGAUCACCCAUGUAGAAGGAUCGAGGG [EX2 C.8] (Eterna round: R97, puzzle: Exclusion 2)",–,94.4,104,–
"UCUCGACAUGAGGAUCACCCAUGUCAGGAUAUUGUGUUUGAGGUUUUUUACCUUUUGGCAAGAAGGGAUGUGUG [LRO-Excl1-21] (Eterna round: R96, puzzle: Exclusion 1)",–,27.5,27.7,19.7
UCUCGACAUGAGGAUCACCCAUGUCAGGAUAUUGUGUUUGAGGUUUUUUACCUUUUGGCAAGAAGGGAUGUGUG [LRO-Excl1-21] (puzzle: Exclusion 1),24.9,–,–,–
UCUCGACAUGAGGAUCACCCAUGUCAGGAUAUUGUGUUUUGGGUUUUUUACCUUUUGGCAAGAAGGGAUGUGUG [LRO-Excl1-20] (puzzle: Exclusion 1),20.4,–,–,–
"UCUCGCGGGCAAGGAUAUCCCACGCUGUUCUGGCCCGUGUUUGUUACAUGAGGAUCACCCAUGUGGGAGAAGGUGCACCAGGGC [Design 42] (Eterna round: R96, puzzle: Exclusion NG 2)",–,218,168,96.3
"UCUCGCGGGCAAGGAUAUCCUACGUUGUUCUGGCCCGUGCAUGUUACAUGAGGAUCACCCAUGUGGGAGAAGGUGCACCAGGGC [Design 38] (Eterna round: R96, puzzle: Exclusion NG 2)",–,56.9,52.5,30.3
"UCUGGUCAAGGAUAUACAAUCGUGCUUCGGCACGUAAGAUCACAUGAGGAUCACCCAUGUAGAAGGUGACCAGA [E2/1-C3] (Eterna round: R97, puzzle: Exclusion 2)",–,449,43.9,–
"UCUGGUCGAGGAUAUACAUGAGGAUCACCCAUGUGGUCACGUGACUUCGGUCACGAAUGUAGAAGGCGACCAGA [E3/3-A6] (Eterna round: R97, puzzle: Exclusion 3)",–,26.7,51,–
"UCUUACUGAGGAUAUACAUAGAUUUACAUGAGGAUCACCCAUGUUCCUCUAAGUAUAUAUGUAGAAGGCAGAAGAU [Mat - Exclusion 5 - JL Mod - D44] (Eterna round: R97, puzzle: Exclusion 5)",–,329,235,–
UCUUAUUGCAAGGAUAUGCAAAUUAUUAUUAAAGCAGAAGGUGCAACAUGAGGAUCACCCAUGUUUCCGGGAAA [JR_E6_Sub040] (puzzle: Exclusion 6),25,–,–,–
"UCUUAUUGCAAGGAUAUGCUUUUUAUUUCUUUUGCAGAAGGUGCAACAUGAGGAUCACCCAUGUUUCCGGGCAU [JR_E6_Sub035] (Eterna round: R96, puzzle: Exclusion 6)",–,34.4,21.5,16.4
UCUUAUUGCAAGGAUAUGCUUUUUAUUUCUUUUGCAGAAGGUGCAACAUGAGGAUCACCCAUGUUUCCGGGCAU [JR_E6_Sub035] (puzzle: Exclusion 6),16.8,–,–,–
"UGAAACCUAGGAUAUACAUGAGGAUCACCCAUGUAAUGUAGUAUAGUAUAUGUAAGAUGUAGAAGGAGGAAAGU [LRO-Excl05-27-Smart Aleck] (Eterna round: R97, puzzle: Exclusion 3)",–,26.3,37.7,–
"UGAAUAAUAGUAAGGAUAUCAGCCGCGAAAGUGGCUGAGAAGGUACAUGAGGAUCACCCAUGUGAAAUAAGAAU [Mod of Zala 19 - Jieux - Brourd's Mod of Exclusion 4] (Eterna round: R97, puzzle: Brourd's mod of Exclusion 4)",–,27.1,19.8,–
"UGACUUCAUAUCACAUGAGGAUCACCCAUGUUAUUCAUCUCGUAGGAUAUCGAGGUUUAUUAUUUCGAGAAGGACGUAUUGUUU [JR_ExcNG3_Sub075] (Eterna round: R96, puzzle: Exclusion NG 3)",–,68.6,45.5,44.3
UGAGGACAUGAGGAUCACCCAUGUAAGGAUAUGCGGAGAGAUUGGAGAGGUCGAGGAGGCAGAAGGUACAGGAC [JR_Exclu1_Sub049] (puzzle: Exclusion 1),68,–,–,–
"UGAGUGCUGCGAGGAUAUACAUGAGGAUCACCCAUGUAUACCUGUGAGGCUUUGCCUCACAGGUAGUAGAAGGCGCAGUACUCU [Mat - Exclusion NG 2 - Mod of JL - D44] (Eterna round: R96, puzzle: Exclusion NG 2)",–,13.1,12.8,9.11
"UGAGUGCUGCGAGGAUAUACAUGAGGAUCACCCAUGUUAUCGUGUGAGGCUUUGCCUCACACGAAGUAGAAGGCGCAGUACUCU [JL ENG2 1.11] (Eterna round: R96, puzzle: Exclusion NG 2)",–,9.84,14.2,10.2
"UGAUCUAGCGGAGGAUAUACAUGAGGAUCACCCAUGUAGACUCUAUGACCGUAGUCGUGGAGUGUGUAGAAGGCCGCUAGAUCU [JL ENG2 3.74] (Eterna round: R96, puzzle: Exclusion NG 2)",–,14.3,12.6,9.24
